This note sets out measurements from patent publication US20230071283A1, “COMPOSITIONS AND METHODS FOR SELECTIVE PROTEIN EXPRESSION” (Novartis AG, priority 2017, published 2023).

One experiment deals with NALM6 (CD19+). Kind of experiment: Killing assay with luciferized target cells (remaining luciferase activity). The settings on record: presence or absence of bazedoxifene; 20 hours; versus parental CAR19.
Experiment [1] deals with NALM6, a CD19+ target cell line. Kind of experiment: Cytokine secretion in co-culture with target cells. Conditions: presence or absence of bazedoxifene; 20 hours; versus parental CAR19.
A further experiment deals with CD19+ NALM6 cells. In words: Proliferation assay in co-culture with target cells (FACS, counting beads). The settings on record: presence or absence of bazedoxifene; 4 days; versus parental CAR19.
The subject of another experiment is primary human T cells. Kind of experiment: FurON CAR19 surface expression in primary human T cells (FACS, protein L). It counts as cell-based. Conditions: cells prepared for the in vivo study; IL2 and 1 uM bazedoxifene; day 10. On the procedure:
Bazedoxifene and raloxifene were resuspended in DMSO. In all instances, where concentrations not indicated, compounds were added at 1 uM for 24 hours prior to analysis by flow cytometry.
. […] Cell number, size, and viability were also assessed.
Untransduced T cells (UTDs) and the parental CAR19 were used as controls. […] .
CART cells were generated by starting with blood from healthy apheresed donors whose naïve T cells were obtained by negative selection for T cells, CD4+ and CD8+ lymphocytes. These cells were activated by the addition of CD3/CD28 beads (Dynabeads® Human T-Expander CD3/CD28, Thermo Fisher Scientific) at a ratio of 1:3 (T cell to bead) in T cell medium (RPMI1640, 10% heat-inactivated fetal calf serum (FCS), 2 mM L-glutamine, lx Penicillin/Streptomycin, 100 μM non-essential amino acids, 1 mM Sodium Pyruvate, 10 mM Hepes, and 55 μM 2-mercaptoethanol) at 37° C., 5% CO2. T cells were cultured at 4×10^6 T cells (UTDs) or 5×10^6 (CART19 and FurON CART19) in 1 mL medium per well of a 24-well plate. […] T cells began to divide in a logarithmic growth pattern, which is monitored by measuring the cell counts per mL, and T cells are diluted in fresh medium every two days. […] On day 10 the cells are collected and the percentage of cells transduced (expressing the CD19-specific CAR on the cell surface) was determined by flow cytometry analysis on a FACS Fortessa (BD). […]

B1: construct #130: furin degron with fewer mutations (ERmut2) fused to anti-CD19 scFV CAR; same furin cleavage sequence as #106 (protein)
chain: RSSLALSLTADQMVSALLDAEPPILYSEYDPTRPFSEASMMGLLTNLADRELVHMINWAKRVPGFVDLTLHDQVHLLECAWMEILMIGLVWRSMEHPGKLLFAPNLLLDRNQGKCVEGGVEIFDMLLATSSRFRMMNLQGEEFVCLKSIILLNSGVYTFLSSTLKSLEEKDHIHRVLDKITDTLIHLMAKAGLTLQQQHQRLAQLLLILSHIRHMSNKRMEHLYSMKCKNVVPLSDLLLEMLDAHRLGTGAEDPRPSRKRRSLGDVGEIVMTQSPATLSLSPGERATLSCRASQDISKYLNWYQQKPGQAPRLLIYHTSRLHSGIPARFSGSGSGTDYTLTISSLQPEDFAVYFCQQGNTLPYTFGQGTKLEIKGGGGSGGGGSGGGGSQVQLQESGPGLVKPSETLSLTCTVSGVSLPDYGVSWIRQPPGKGLEWIGVIWGSETTYYSSSLKSRVTISKDNSKNQVSLKLSSVTAADTAVYYCAKHYYYGGSYAMDYWGQGTLVTVSSTTTPAPRPPTPAPTIASQPLSLRPEACRPAAGGAVHTRGLDFACDIYIWAPLAGTCGVLLLSLVITLYCKRGRKKLLYIFKQPFMRPVQTTQEEDGCSCRFPEEEEGGCELRVKFSRSADAPAYKQGQNQLYNELNLGRREEYDVLDKRRGRDPEMGGKPRRKNPQEGLYNELQKDKMAEAYSEIGMKGERRRGKGHDGLYQGLSTATKDTYDALHMQALPPR
Turning to B1, in the experiment on NALM6 (CD19+), the Percent tumor lysis result was “kill CD19+ tumor cells, in a stabilizing compound- and target-dependent manner and is noninferior to the parental CAR construct”. For the same molecule, in experiment [1], the “levels of IFNγ” value is “secrete cytokines in the presence of CD19+ tumor cells, in a manner that is stabilizing compound-dependent and is noninferior to the parental CAR construct”. Besides, the Proliferation result in the experiment on CD19+ NALM6 cells is “proliferate in the presence of CD19+ tumor cells, in a manner that is stabilizing compound-dependent and is noninferior to the parental CAR construct”. For the same molecule, the “surface expression (mean fluorescence intensity, MFI)” value in the experiment with primary human T cells was “lower than the observed for CART19”.
